Sequences and labels used below:
B1: AAD-COUP-TFII-LBD-(144–414) [not stated] / LexA-COUP-TFII-LBD-(144–414) [not stated] (parent)
chain 1: MRREAVQRGRMPPTQPTHGQFALTNGDPLNCHSYLSGYISLLLRAEPYPTSRFGSQCMQPNNIMGIENICELAARMLFSAVEWARNIPFFPDLQITDQVALLRLTWSELFVLNAAQCSMPLHVAPLLAAAGLHASPMSADRVVAFMDHIRIFQEQVEKLKALHVDSAEYSCLKAIVLFTSDACGLSDVAHVESLQEKSQCALEEYVRSQYPNQPTRFGKLLLRLPSLRTVSSSVIEQLFFVRLVGKTPIETLIRDMLLSGSSFNWPYMAIQ
chain 2: B1 chain 1

From publication PMC3834829, “A signature motif mediating selective interactions of BCL11A with the NR2E/F subfamily of orphan nuclear receptors” (Nucleic Acids Research, 2013) come the findings set out here.

Variants of B1 are the subject of this test. Briefly: yeast two-hybrid. Particulars: with LexA-COUP-TFII-LBD-(144–414);; read off a plot.
chain 1 F78A: the response came out at 410 nmol/mg/min. As to chain 1 I95A, the response was determined as 500 nmol/mg/min. Take chain 1 V99A: the response stood at 460 nmol/mg/min. With chain 1 R103A, the response was 470 nmol/mg/min. In the case of chain 1 R85A, the response came out at 390 nmol/mg/min.
